Assay results as given in patent US20230406909A1 (ROCHE DIAGNOSTICS OPERATIONS, published 2023).
Like-named read-outs stand apart in the source and are kept apart here.

Tests used:
[1] = target: T1, SlyD-SlyD-tagged nucleocapsid full-length protein (EcSlyD-EcSlyD-CoV-2-N(1-419)) (SARS-CoV-2)
[2] = target: T1, SlyD-SlyD-tagged nucleocapsid …; remark: listed apart in the source
[3] = target: T1, SlyD-SlyD-tagged nucleocapsid …; experiment: SPR (Biacore), captured antibody, NCP analyte, Langmuir 1:1 fit

| Binder | Kd [1] [nM] | MR (molar ratio) [2] | koff [2] [s⁻¹] | kon [2] [M⁻¹ s⁻¹] | t1/2 diss [2] [h] | MR (molar ratio) [3] | koff [3] [s⁻¹] | kon [3] [M⁻¹ s⁻¹] | t1/2 diss [3] [h] | koff [1] [s⁻¹] | Kd [2] [nM] | Kd [3] [nM] |
| --- | --- | --- | --- | --- | --- | --- | --- | --- | --- | --- | --- | --- |
| Antibody 1G9 (antibody, V domains shown, also called clone 1G9) VH: SQSVEESGGRLVTPGTPLTLTCTVSGFSLSTYAVNWVRQAPGKGLEWIGVIDGSGSTYYANWAKGRFTISKASTTVDLKITSPTTEDTATYFCARGAGTDNFGNLNLWGPGTLVTVSS VL: DVVMTQTPASVEVAVGGTVTIKCQASESISSWLAWYQQKPGQPPKLLIYRASTLASGVPSRFKGSGSGTEYTLTISGVECADAATYYCQQDYSTSNIDNTFGGGTEVVVK | 1.2 | 1.2 | 0.00024 | 200000 | 0.8 | 1.2 | 0.00024 | 200000 | 0.8 |  |  |  |
| Antibody 5B6 (antibody, V domains shown, also called clone 5B6) VH: SQSVEESGGRLVTPGTPLTLTCTASGFSLSSYYMSWVRQAPGKGLEWIGVMTAGGSTFYASWAKGRFTISKTSTTVDLKITSPTTEDTATYFCARSIDTNYGSSIWGPGTLVTVSL VL: DVVMTQTPASMSEPVGGTVTIKCQASEDIYTYLSWYQQQSGQPPKVLIYAASNLASGVSSRFKGSRSGTEYTLTISDLECADAATYYCQGDYYGSNYGLGTFGGGTEVVVK | 0.7 | 1.7 | 0.00012 | 180000 | 1.55 | 1.7 | 0.00012 | 180000 | 1.55 |  |  |  |
| Antibody 1.1.32 (antibody, V domains shown, also called M-1.1.32; clone 1.1.32) VH: EVQLQQSGPELVKPGASVKMSCKASGYTFTTYVMHWVKQKPGQGLEWIGYSDPYNGDSKDNENFKGKATLTSDKSSSTVYMELSSLTSEDSAVYYCARGFGNYLFYFDYWGQGTTLTVSS VL: DIQMTQTTSSLSASLGDRVTISCSASQDIRDYLNWYQQKPDGTVKLLIYYTSNLHSGVPSRFSGSGSGTDYSLTISNLEPEDIATYFCQQYSKLPYTFGGGTKLEIK | 0.06 | 0.9 |  | 340000 | 9.65 | 0.9 |  | 340000 | 9.65 | 2e-05 | 0.059 | 0.059 |
